From the DeepSol protein solubility set

Assay: soluble on expression in E. coli; label from the status in PepcDB or PDB records

Soluble on expression in E. coli, not soluble:
MGSDKIHHHHHHMNDLLKVIHNRASIRKFTGEHIPESDMEQIMSAAQSVPSINNYQPVTYVEITDQSVKDQAADLVNMPYVASSDRFFVILADYHKLLVGFEGKEREIAQTNLSAYNIAEGAALSAGVSAYAAIIAAESLGYGGVTMAGPVRAFQIYENYLDLPEMTKVVFTLALGVPDGHPGVKPKLPLSTFWQKDSYDTNVIDQGIADYNKTMRSYYESRNIDENWTEHNKKALTKAKDTTALTEYAKRKGFNLK
MGSDKIHHHHHHMNDPLDPLPSLNALRAFEAASRHLNFRLAAGELGVTQGAVAQHVRGLESSIGLVLFERRPRALVLTENGRSYAASVRRAFDLLVEATQALRPQPLQLTISVTPTFAAKWLIPRLQDFTAAHPEIDLRIIATDRLSHFQTDAIDLAVRYGQPPFGVGLNAECLFESVLVAVGSPRLANELRSSGAARFFARYPLLHDAHNQWPPFLQEVLKQSAAIGEKNIRFNQTSLAIDAAMAGQGIALAPFAFVGRAIAMGGLSRIFDVELRTGSGFYVVTPRRLRHPGPVAAVRGWLLKQGREQMCD
MGSDKIHHHHHHMNDVQQAINSDDIPLTDELVVSYLQDNPEFFNRNNSLMTGLRLNDEQRGTVSLVERQQQQLRQKVYGLEDEITQLMSVANHNEQLFVLYSDLYLRLLDCQSAEELLDCLHQATTELLSLSSFKLWLVSGNNTEVAHHSLSTNDCAGVMQNRLTNDEYYFGRLQESEQTLIFSKPCLGSVVLIKLTHDEQAVGFLAIGSEDAHHFDPRMDTLLLNQFKRLVAKLLHQQLSM
MGSDKIHHHHHHMNEIAGIPYVEASFDKNGQGPEEEVALPAGVTDLIIMSHGWNNNKSKAEDLYNGFFASFAAAAQPNDLSARKLVILGVFWPSREYDTSVAVSGTPATGGGGAALGGGNGGSIKRLEEKLDDMKEIFTEAEQKKLLDEAKALLPDLEEKASVRDLFVNKMRSLLDPSAAGKEDASNIFFKDGGNELMKNLKAEEEDLGEDVAGGGAALPLGVSTPARAEGGAAGLVEILSGFKAAAINLLNYTTYYEMKTRSGTVGKNGVAPLIDKLASQVERIHLIGHSFGCRVVTSAALGSKTDKIKSMILLQAAFSQNGFSKIEQGFYRAIVDNHRVKGPVLITHTPNDRAVGLAYPLASRISGDKTMAFGDKDDLFGAMGRNGAQKMEQGEAVEGKLLSVGGPYAFKANTYFNLEASDFIKNHNDIKGKEVGYVVRKVVATAGMG
MGSDKIHHHHHHMNFLDGHLFPENQQPLIITAAPYAPSWMPSDFPEDIAVTMEDQIQKAVDCYNAGATVLHLHVRELDGKGSKRLSKFNELIAGVRARVPEMIIQVGGSISFAPESEGAAAKWLSDDTRHMLAELEPTPDQVTVTVNTSQMNILEQFDHRDIVGSSMEDPEVFNAYKEMTVPAQPGWVEEHVRRLTAAGIQSAFQCYNLNSFESVERLMRRGIYKGPLVLNWVAIGGGMDSPSVYSLANFVRAVPDGAVLTVESSVCNVLPVNTMGIAMGLHVRCGTEDTLWNQTRTKKMGTVAQIEQLVRISEEMSRPIATARQAREMCRIGEFYDTVDETLQANGFAPNRNGGQQGFLRKVA
MGSDKIHHHHHHMNGALDVLAPAEVIVAATAPADNEASDMPPVEIVLDSPPVSAEMVFDEDADLLDRLATDDEAAFRMLVERHIDRAYSIALRILGNSADAEDVVQDTMLKVWTHRGRWQHGRAKFSTWLYRVVSNRCIDLRRKPRTENVEAVPEVADTQPDAVRVIERNELSNLLEAAMQRLPEQQRIAVILSYHENMSNAEIAEVMDTTIAAVESLLKRGRQQLRARLSGDESELRAAFTDF
MGSDKIHHHHHHMNHFFVEFGEYEASVCEWGDKSNPQIICFHGLGSTKLSFIEVAELLKDSYHIVSFDLPGHGKTQNFEKDEDYGASHLTNWVVALLEHIGKETFHIVAHSWGASVALHYAAECPEKVNKIVLLDGGYHHGKMNADYFANLYKDAKEGECPPRSLEEEITHYENDFDEYIFDSKETFIQSEKLAYSRWSPLLERAVYDLMREEDSKVKWHATGDTARGVIKFQYTVYKTLKPHKIKSDILLLYCDLPDNYLEIRELQIVEFKKRINITTKLYKDTGHLMHWDRPEEIAEDVLHWFK
MGSDKIHHHHHHMNIGGGKFLLGRISNNPTSGIVGLANVGKSTFFQAITNSKLGNPANYPFATIDAECAKVNIPSVPLSNLLRIYQSAKCVPGTLTIYDIAGLTRGASQGHGLGNKFLNDIRHVEGIFQVVRGFLKEDITHIEGNVDPVRDLSVVQDELILKDLEFLENIRERLSKKMRMVSKNSKEHQEMKIETELLDALEEHLFNGKKIRHFKDHWNLDEVKILNKHNFLTSKPTLILLNVSPQDYVRNENKFVRNIIEWINEFSPGDKFLLFSAEFESQLMECKGIASEYFDKIKEDTNVSDQQLVSAIPQIILEMRKLLNLISFFTCGPQEVHQWNIREGTTAQEAAGVIHSDLRETFISADVIKYDDLKKMEPPLNESLLKSKGLIKRAGKQYIMQDNDIALFKAAGGKIKK
MGSDKIHHHHHHMNIIKFFNQTIDYIETTLEDKIDEKKIVQLSGYSYPMFSRIFSILTAYSLSEYIRLRRLTKAAFDLRKNEEKVIDIAFKYQYESPDSFSLAFKKYHNCTPMEVKQGKDFKIFSPIHLSLTIKGGKAMEISIKKKEKFIVGGIKAENIETFQCPKVWEELFKKVSFNDLEKLGNGNSYGVCYETTSSKSINYIAAFDVKNVSEAKKLGLDTMEIPEAEYAVVKLKGKIPNCIHEGWKYVMEVFFPEHGYKHAGTPDFELYSEGDMGSDNYEMELWVPIIKAE
MGSDKIHHHHHHMNILFVAPYTPSPIRVRPYQFIRHLARRGHTITLVCVADNEAALAELRTICRRVVAVPTRTGDHVLAYIRALPTRLPLQAAHCLTPAMITAVTREIQSGDHDVIHIEHLRAAEIGLAALHQSGGGLPVVLDAVDSISLLFERTFRRSSSLSGRLRALIDLARTRHYEATYPHRFAAVVVTSPEDRWALMTLNQTLSHPGHNPLVVAPNGVDLEYFQPHTGPRHPASLVFTGKMSYHANEAAARYLVEAIMPRVWAVRPEVTVTLAGAEPGAHIRAYAHDPRITVTGAVPDLRPYLTQATIAVAPIRYGVGVQNKVLEAMATATPVITARQATVALSVQPGHDLIVADDAAEFAQAILNLLADPERRDRLGQAGRMYVERHHHWQQSVTCLESVYRAVTTPVYTH
MGSDKIHHHHHHMNIPIKTLHYFLTLVETGNFTRAAEKSFITQPTLSKIIQRLEENLGQQLLHRNNQKIELTQAGILLENSAREILGQWHRLQEDLTNLSGLKSGHLRLGVCPMMSSLIIDLLTAFRQQYPGIELQMYEYGGFGCEQALLNNSLDIAFTALPTTHDIELANRALTRYPLLACLPKDHALAQQEAVTWQDFEAYPFILYNEDFSLAKLITRLSHKAGVQLNIAFRSGQWDFLATMVEAQMGVAILPEPICHKLQGSELVFKPIRPNLTWDLALIWRKDLPLTPAAQALLDLSEQAHLHP
MGSDKIHHHHHHMNKEHICFDFDSNPAFQTIDYEVAARSFVPGYESIFNMAVALLDASVPEPAHLLIVAAGGGMELITFGQARSHWLFTGVDPSAKMLAIAQEKVAKQGLTNRVKLHQGLTHELPVTTLYDAATCILAMHFLPDDGAKLLLLQSISQRLKPGAKLILVDLCEEKGSERFNDFLKAYKYHARNLGMSPEIVEETASKVVHIHCISEERTIELLQEANFSKITRFFTALWFRGWIATKNT
MGSDKIHHHHHHMNLEEVLNYRRSVRVFDKTKPLDPEKVKHCLELATLAPNSSNMQLWEFYQVIQPELLAKISKACLDQTATSTASEVVVFVTRQDLYRIRAKFVLDFERGNVRRNSPKERQEKRIKDRELYYGKLMPFLYARFFRILGLLRSVLAKAIGLFRPIVREVSESDMRVVVHKSCALAAQTFMIAMANEGYDTCPLEGFDSKQMKKLLKLPHGAEVNMVIACGIRDGNKGIWGERGRVPFDEVYHRV
MGSDKIHHHHHHMNLKLDHIIHYLHQLESFKFPGEILELQNGGRHHHLGTFNQIAPIKNSYIELLDVENESKLSNIAKTEEGRVSFATKIVQDHFKQGFKGICFRTKDINQVKSTLENRGVDVIGPIDMERENKKGHQIRWRLLYIANPDYTVKPPFFIEWDNNKKQNLSQIHNFNLSSFKIKEVIITSTQRETTVSLWKEWYNLKIVNETATSTDLKLETDEVIYKIEDGKDSGFHTLIMTDINATAPYSIFIRGAKYRFEPPN
MGSDKIHHHHHHMNLNIAICDDDTNDIAIMKKNILQYTIETDNNIVVSSYFSASDILSDYKNHLYQIVLLDIEMPDINGMELARQLRDMDDDLLIIFTTSYPEYMHESFEVQPFQFITKPVDYTAIYKLFNNIIKKLYRNSKSIVIIDTDGEKNFVPLSDLLYISSMKENKLHLRYQLTDRALISKGTLSEAEKRLSSHGFVSPSRGFLVNLHQIRSITSTRLLLNNGFELPISRRRSKELQNIYSQHIINIL
MGSDKIHHHHHHMNMAHDEQRWLSPRLQKAAALCNQAPAASESPLWLGIDLGTCDVVSMVVDRDGQPVAVCLDWADVVRDGIVWDFFGAVTLVRRHLATLEQQLGCRFTHAATSFPPGTDPRISINVLESAGLEISHVLDEPTAVADLLQLDNAGVVDIGGGTTGIAIVKQGRVTYSADEATGGHHISLTLAGNRGIGLEEAEQYKRSHAGEIWPVVKPVYEKMAEIVARHIAGQGIVDLWLAGGACMQPGVHELFRQRFPALPVHLPQHSLFMTPLAIANSGREKAEGMYAS
MGSDKIHHHHHHMNNIIATGFNTASTDGELDSLERELRRLEAIGVDTVELALSSLDLIAGGRIVKERGDRLRTLLETFSFRYTVHGLVSSNFMDPATRRHQVDAAKALVEICDSIDARVLVQHAGFLRADQIAQRAGADERQCEALLELGEHAKAYGIRIAFENIFTTEPGQYRQTPAEVAATVKAVNHPDVVALIDFSHAYLESNYRGLDFRDQLRAMAPVLGAPGRRLSRRTATTRIVVITDGGMECSTGWTS
MGSDKIHHHHHHMNNIQAIRKKVETQIDDLQNKTDEIAEFNQAKVLDAFQENKVSDFHFHPSTGYGYDDEGRDTLERVYATVFKTEAALVRPQIISGTHAISTVLFGILRPDDELLYITGQPYDTLEEIVGIRKQGQGSLKDFHIGYSSVPLLENGDVDFPRIAKKMTPKTKMIGIQRSRGYADRPSFTIEKIKEMIVFVKNINPEVIVFVDNCYGEFVEYQEPPEVGADIIAGSLIKNPGGGLAKTGGYIAGKEALVDLCGYRLTTPGIGREAGASLYSLLEMYQGFFLAPHVTAQAIKGARFTAAMLAEFGVEADPVWDAPRTDLIQSVSFHNKEKMVAFAQAIQAASPVNAHVLPIGAYMPGYEDDVIMAAGTFIQGASLELTADGPIREPYQLYVQGGLTYEHIKIAVTRAIQKIV
MGSDKIHHHHHHMNQIIPTSANGCIPNVYFMGRWTTQTVESKPAMYTTNLGAQILFEVQNADYFTLEAVINPLSAPQTLSIYIDDELHLTPLTRSKNDFKLSSNQSHIVRIYFTGNTDQDEIWLGNDGLTIKDITIASGTLAAIKPAGPLVAFIGDSITAGCWVRSKAPSIGYGADLNYAAQLSRALDWEDYRIAYSAAGIIRYGTGGVPPAGKFVKYVNFSVKAPRINPDLVLINLGTNDARYEDDVFEMYFVWFINEVKKQFPHARIIIITPFNQAHSHVIKNVAKALKIELIPTLDWVIETNDEVHPNVEGSKAISDHLVAWFTEPQNRLQSE
